Experiment [1] concerns the target T1, CD22 variant lacking domain 1 (Δ1), expressed on CHO cells (human, UniProt P20273 139-847).
T1 construct: Membrane protein on stably transformed CHO cells; Numbering of full length precursor CD22beta (Wilson et al. 1991); also called CD22 lacking domain 1
T1 chain: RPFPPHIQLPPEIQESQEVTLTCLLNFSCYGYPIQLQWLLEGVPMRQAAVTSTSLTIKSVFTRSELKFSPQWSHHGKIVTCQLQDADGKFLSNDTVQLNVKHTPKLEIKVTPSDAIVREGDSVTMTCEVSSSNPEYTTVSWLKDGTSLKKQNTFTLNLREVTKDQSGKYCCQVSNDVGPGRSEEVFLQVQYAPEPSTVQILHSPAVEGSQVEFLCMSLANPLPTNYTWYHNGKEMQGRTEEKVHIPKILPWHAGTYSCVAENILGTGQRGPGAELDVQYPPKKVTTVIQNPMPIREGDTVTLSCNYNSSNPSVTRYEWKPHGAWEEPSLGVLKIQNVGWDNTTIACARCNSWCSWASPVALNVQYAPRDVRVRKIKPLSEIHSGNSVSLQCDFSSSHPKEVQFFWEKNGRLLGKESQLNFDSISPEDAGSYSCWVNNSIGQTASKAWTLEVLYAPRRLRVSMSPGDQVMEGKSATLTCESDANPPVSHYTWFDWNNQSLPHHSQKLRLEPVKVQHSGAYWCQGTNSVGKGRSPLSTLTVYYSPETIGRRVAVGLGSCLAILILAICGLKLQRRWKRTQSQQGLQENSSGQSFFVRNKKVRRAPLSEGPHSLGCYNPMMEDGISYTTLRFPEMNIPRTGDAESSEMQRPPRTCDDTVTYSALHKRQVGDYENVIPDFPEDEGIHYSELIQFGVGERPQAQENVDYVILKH
Nature of the experiment: flow cytometry on CHO cells expressing the CD22 deletion variant; goat anti-mouse IgG Alexa 488. How it is done: CD22 sequences lacking various of the seven immunoglobulin-like domains of the major CD22 isoform (CD22beta) were cloned and transformed into cells for stable expression. For example, CD22 variants lacking domain 1 (Δ1), domain 2 (Δ2), or domains 3 and 4 (Δ3,4) were cloned, transformed into CHO cells, and expressed on the cells. Control cells expressed CD22beta. Deletions were performed using Stratagene QuikChange XL™ reagent kit. Deletion of domain 1 was performed by deletion of amino acids 22-138; deletion of domain 2 was performed by deletion of amino acids 139-242; and deleted domains 3 and 4 were available as the minor isoform CD22alpha (deletion of amino acids 241-417). All amino acid numbers refer to the numbering of full length precursor CD22beta by Wilson, G. L. et al. (see FIG. 1 in Wilson, G. L. et al., J. Exp. Med. 173:137-146 (1991)). FIG. 14 is a diagram of the deleted domains. Binding was determined by flow cytometry using an isotype control. […] Binding of 5E8.1.8 was detected using biotinylated goat anti-mouse IgG plus streptavidin PE.

Experiment [2] concerns the target T2, full length human CD22 (CD22beta) expressed on the surface of CHO cells (human, UniProt P20273 22-847).
T2 construct: CHO cells stably expressing full length human CD22; also called CD22beta (control cells)
The experiment can be described thus: cell-based competitive binding of 125I-labelled against unlabelled antibody on CHO cells, 4 h at 4 C, Scatchard analysis. As for the experimental part:
(§1) Briefly, CHO cells stably expressing full length human CD22 (SEQ ID NO:27) or cynomolgus monkey (cyno) CD22 (SEQ ID NO:31). […] A cell-based, competitive binding assay was performed using serially diluted, unlabeled anti-CD22 antibody. Antibodies were allowed to bind to the cells for 4 hours at 4° C. Binding affinity, KD, of the antibodies was determined in accordance with standard Scatchard analysis performed utilizing a non-linear curve fitting program (see, for example, Munson et al., Anal Biochem, 107: 220-239, 1980).

The target in experiment [3] is T3, cynomolgus monkey (cyno) CD22 expressed on the surface of CHO cells (cynomolgus monkey).
T3 construct: residues 1-19 (signal) should be removed
T3 chain: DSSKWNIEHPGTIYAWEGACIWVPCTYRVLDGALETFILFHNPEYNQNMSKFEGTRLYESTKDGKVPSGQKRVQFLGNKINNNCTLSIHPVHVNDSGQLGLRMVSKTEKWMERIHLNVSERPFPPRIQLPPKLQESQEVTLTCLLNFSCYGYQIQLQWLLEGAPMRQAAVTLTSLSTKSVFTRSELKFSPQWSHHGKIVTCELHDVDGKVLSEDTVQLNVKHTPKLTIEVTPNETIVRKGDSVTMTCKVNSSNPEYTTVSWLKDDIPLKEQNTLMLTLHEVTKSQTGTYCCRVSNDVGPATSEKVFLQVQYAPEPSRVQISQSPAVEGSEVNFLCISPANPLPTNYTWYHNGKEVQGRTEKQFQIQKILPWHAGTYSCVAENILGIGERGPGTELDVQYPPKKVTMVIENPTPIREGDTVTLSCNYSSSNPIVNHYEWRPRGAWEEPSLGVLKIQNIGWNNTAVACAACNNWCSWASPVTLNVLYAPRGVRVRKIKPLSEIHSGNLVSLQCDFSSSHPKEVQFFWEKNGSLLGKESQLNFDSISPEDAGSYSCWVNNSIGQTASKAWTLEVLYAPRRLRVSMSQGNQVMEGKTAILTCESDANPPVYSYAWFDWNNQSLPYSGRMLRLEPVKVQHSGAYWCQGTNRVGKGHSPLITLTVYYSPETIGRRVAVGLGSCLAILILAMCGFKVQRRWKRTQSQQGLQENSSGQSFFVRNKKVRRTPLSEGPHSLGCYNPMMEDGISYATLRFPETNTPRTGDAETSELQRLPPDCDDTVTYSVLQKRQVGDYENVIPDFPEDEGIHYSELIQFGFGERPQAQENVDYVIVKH
The experiment is described as above. As for the experimental part:
as §1

B1: murine anti-human CD22 10F4.4.1 monoclonal antibody (antibody, V domains shown)
VH: QVQLQQSGPELVKPGASVKISCKASGYEFSRSWMNWVKQRPGQGREWIGRIYPGDGDTNYSGKFKGKATLTADKSSSTAYMQLSSLTSVDSAVYFCARDGSSWDWYFDVWGAGTTVTVSS
VL: DILMTQTPLSLPVSLGDQASISCRSSQSIVHSNGNTFLEWYLQKPGQSPKLLIYKVSNRFSGVPDRFSGSGSGTDFTLKISRVEAEDLGVYYCFQGSQFPYTFGGGTKVEIK
notes: Murine hybridoma antibody (ATCC PTA-7621); also called mu 10F4; Mu 10F4.4.1
On to B1, for which, in experiment [1], the binding result was “no binding”. Besides, the figures for the Kd in experiment [2] and in experiment [3] were 2.4 nM and 2.3 nM, respectively.

Source of the values: patent publication US20130171170A1 (published 2013).
